In test [1] the target is CheY2-T25 (P. aeruginosa). Briefly: two-hybrid.
Test [2] deals with T25-CheY2 (P. aeruginosa). Description: two-hybrid.

T18-CheA2 (enzyme) registered a fold β-galactosidase activity over controls in test [1] of 34 fold.

B1: CheD_(1–200)-T18 (natural protein)
chain: MNLQAREGAPLNRYYDPYFACDAVKLLPGEYFASGEDLVIVTVLGSCVSVCLRDPLNGIAGMNHFMLPERGLGGDPASPSARYGSHAMELLINRMLALGASRERLQAKVFGGGSVLRQISAAIGQRNVEFTLDYLATERIPLLASDVLEAFPRKIYFFPRNGRVLVKSLVELKNDTVLQRERDYRRRIDRNADGGPIDLF
Molecule B1 had a fold β-galactosidase activity over control in test [2] of 15 fold.
